Patent publication US20220356213A1 (MAX PLANCK GESELLSCHAFT ZUR F RDERUNG DER WISSENSCHAFTEN E V, published 2022)

Target: T1, TMH-FLAG-(L1)-iLID
T1 chain: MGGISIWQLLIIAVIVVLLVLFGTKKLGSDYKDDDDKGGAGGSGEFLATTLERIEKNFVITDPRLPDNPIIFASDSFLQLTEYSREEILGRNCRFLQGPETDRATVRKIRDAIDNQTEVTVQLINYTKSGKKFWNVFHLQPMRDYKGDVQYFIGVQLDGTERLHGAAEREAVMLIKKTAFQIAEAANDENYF
Test: cell-based or functional assay

B1: SspB_Nano-SctQ (other)
chain: MSLRSGAGSSPKRPKLLREYYDWLVDNSFTPYLVVDATYLGVNVPVEYVKDGQIVLNLSASATGNLQLTNDFIQFNARFKGVSRELYIPMGAALAIYARENGDGVMFEPEEIYDELNIGGAGELGGSGGSGGSLLTLPQAKLSELSLRQRLSHYRQNYLWEEGKLELTVSEPPSSLNCILQLQWKGTHFTLYCFGDDLANWLTPDLLGAPFSTLPKELQLALLERQTVFLPKLVCNDIATASLSVTQPLLSLRLSRDNAHISFWLTSAEALFALLPARPNSERIPLPILLSLRWHKVYLTLDEVDSLRLGDVLLAPEGSGPNSPVLAYVGENPWGYFQLQSNKLEFIGMSHESDELNPKPLTDLNQLPVQVSFEVGRQILDWHTLTSLEPGSLIDLTTPVDGEVRLLANGRLLGHGRLVEIQGRLGVRIERLTEVTIS
L/D ratio of export of heterologous cargo YopE1-53-NanoLuc-FLAG, LITESEC-supp2: < 0.02
L/D ratio of export of heterologous cargo, LITESEC-supp2: 0.01
export of heterologous cargo, LITESEC-supp2, dark: 205 % WT secretion
export of heterologous cargo, LITESEC-supp2, light: 2 % WT secretion
light/dark secretion ratio (L/D ratio), LITESEC-supp1, native T3SS substrates, in vitro secretion assay: 0.28
light/dark secretion ratio (L/D ratio), LITESEC-supp2 (anchor from pACYC184), native T3SS substrates: 0.26
